This is an account of results in patent US20080311122A1, “Antagonists of Hmgb1 and/or Rage and Methods of Use Thereof” (Medimmune, LLC, priority 2005, published 2008).

For experiment [1], the system named is AIA rat model of arthritis. Description: Adjuvant-induced arthritis (AIA) rat model. Type of experiment: in vivo. To be noted: percent protection, isotype control subtracted. How it is done:
Induction of Adjuvant Induced Arthritis […]: Six-eight week old female DA rats (Harlen) were used. On day 0, isoflurane anesthetized animals were given an intradermal injection, at base of tail, 0.75 mg of mycobacterium butyricum (Difco #0640-33-7) mixed in 100 μl incomplete Freund's adjuvant (Difco, Detroit, Mich.).
The human anti-HMG1 antibody G4, the A-box-Fc fusion and the huIgG isotype control were administered at 10 mg/kg, every 3 days, day 0-15. Methotrexate was administered at 0.8 mg/kg, every 6 days, day 0-15 and Renbrel was administered at either 2.5 mg/kg every two days, day 0-15 for treatment group 5 or at 4 mg/kg, every 3 days, day 0-15 for treatment group 6. […]
Monitoring Disease: Beginning at day 6 all animals were observed daily to assess the status of the disease in their paws, which was done by assigning a qualitative clinical score to each of the paws. Every day, each animal has its 4 paws scored according to its state of clinical disease. […] In addition, each mouse is weighed, to follow body weight changes, at the same time the paws are scored.
The joints of the 4 lateral digits of each paw are graded as involved or not involved, i.e., 1 or 0. For example, a maximally involved left rear paw would be scored: ankles=4, midfoot=4, MTP=4, PIP=4, DIP=4 (20 units). […]

Experiment [2] relates to active CIA mouse model of arthritis. Description: Active collagen-induced arthritis (CIA) mouse model. In kind it is in vivo. Particulars: percent protection, isotype control subtracted. Here is the method:
Induction of Active Collagen Induced Arthritis (CIA) in Mice: Six-eight week old male DBA/1J mice (Jackson Labs, Bar Harbor, Me.) were used. On day 0, isoflurane anesthetized animals were given an intradermal injection, at base of tail, of 200 μg bovine Type II collagen (CII) dissolved in 50 μl 0.1 N acetic acid and emulsified with an equal volume of complete Freund's adjuvant (Chondrex, Redmond, Wash.). Three weeks later on day 21 they were given a second similar intradermal injection of 100 μg of CII dissolved in 25 μl 0.1N acetic acid and emulsified with an equal volume of incomplete Freund's adjuvant (Difco, Detroit, Mich.).
Monitoring Disease in Mice: Beginning at day 14 all animals were observed daily to assess the status of the disease in their paws, which was done by assigning a qualitative clinical score to each of the paws. Every day, each animal has its 4 paws scored according to its state of clinical disease. The scoring is done by two observers, with at least one blinded. In addition, each mouse is weighed, to follow body weight changes, at the same time the paws are scored.
The grading scale for the 4 lateral digits of each paw are graded as involved or not involved, i.e., 1 or 0. For example, a maximally involved left rear paw would be scored: ankle=3, midfoot=3, digits=4 (clinical score=10 units) We would repeat this for each paw and sum the scores. […]

B1: S16: human anti-HMG1 antibody, ATCC PTA-6259; VL/VH aa SEQ ID NO: 13/15 (antibody, listed as Homo sapiens, V domains shown)
VH: EVQLLESGGGLVQPGGSLRLSCAASGFTFSWYSMLWVRQAPGKGLEWVSYISPSGGFTNYADSVKGRFTISRDNSKNTLYLQMNSLRAEDTAVYYCARWDYNSGWYYDHWGQGTLVTVSS
VL: AQDIQMTQSPDTLSLSPGERATLSCRASQSVNSRNLAWYQQKPGQAPRLLIYGASTRATGIPDRFSGSVSGTEFTLTISSLQPDDFATYYCQQYNSYFTFGQGTKLEIK
For the molecule B1, the “in vivo AIA” value in experiment [1] is given as 0%.

B2: E11: human anti-HMG1 antibody, recognizes HMG1 A-Box; VL/VH aa SEQ ID NO: 24/26 (antibody, listed as Homo sapiens, V domains shown)
VH: EVQLLESGGGLVQPGGSLRLSCAASGFTFSRYQMNWVRQAPGKGLEWVSSISPSGGHTHYADSVKGRFTISRDNSKNTLYLQMNSLRAEDTAVYYCAKDGRQGKISTVDHWGQGTLVTVSS
VL: AQDIQMTQSPGTLSLSPGERATLSCRASQSVRSNFLAWYQQKPGQAPRLLIYGASRRASGIPDRFSGSGFGADFTLSISRLEPEDFAVYYCQQYGSSPNTFGQGSRVEIK
As to B2, the “in vivo CIA active” value in experiment [2] is listed as 0%.
